In patent publication US20090068174A1, “THERAPEUTIC ALKALINE PROTEASE COMPOSITIONS AND USE IN FACILITATING THE TRANSPORT OF AGENTS ACROSS THE GASTROINTESTINAL MUCOSAL LINING” (Kansas University Medical Center Research Institute, Inc., priority 2007, published 2009):

What was measured:
mouse recombinant IFN-γ = target: T1, mouse recombinant IFN-γ (Mus musculus, UniProt P01580); experiment: Cleavage of mouse IFN-γ (Western blotting); type: biochemical; conditions: 100 ng cytokine, 37° C. overnight, Western blot
T1 sequence (P01580 23-155): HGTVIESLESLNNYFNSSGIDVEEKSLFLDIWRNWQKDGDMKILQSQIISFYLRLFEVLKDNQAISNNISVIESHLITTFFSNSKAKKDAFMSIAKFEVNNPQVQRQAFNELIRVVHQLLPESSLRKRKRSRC
Procedure: Degradation of mouse recombinant TNF-α: (A) or IFN-γ (B) following treatment with: the protease powder prepared according to Example 1 (preparation), purified alkaline protease (AP); Pseudomonas elastase (E); and buffered-treated control (C). The cytokines (100 ng each) were incubated at 37° C. overnight with the indicated quantities (ng) of enzymes, and then analyzed by Western blotting for evidence of degradation. A scan of AP-treated mouse TNF-α (left-hand Western blot) showing the decreasing density of the top band as a function of alkaline protease concentration (C).
Because the anti-TNF-α used here was specific for an epitope located in the carboxyl terminus of the cytokine, the pattern of cleavage is most consistent with attack at the amino terminus of TNF-α (e.g., there is a loss of molecular mass without a loss of the epitope recognized by the antibody).

TNBS-induced colitis = experiment: Induction of IBD in the hapten (TNBS)-induced SJL mouse model; type: in vivo; conditions: SJL mice, i.p. and oral treatment
Procedure: This example uses the TNBS model in the SJL mouse, a susceptible strain, comparing systemic versus oral administration of the alkaline protease as a prophylactic treatment of blocking the induction of gastrointestinal inflammation. Endpoint measurements can include histopathological evaluation and scoring of the lesions as known in the art.
SJL strain mice (Jackson Labs) can be lightly anesthetized, and a solution of 25-50 μg of TNBS in 100 μl 50% ethanol can be administered by enema. Initial studies can determine whether sufficient pathology is induced by a single injection or whether the two challenge protocol (day 0 and day 7) is preferable. Response parameters include: (a) body weight measured on days 0, 2, 4, 6, 8, and 10; (b) pathological scoring of lesions in the intestine on day 10 (0=no inflam; 1=low level leukocyte infiltration; 2=medium infiltration, vascular intensity with some wall thickening; 3=high level infiltration, vascular response and thickening; 4=transmural infiltration, loss of goblet cells); (c) and immunohistological staining for activated caspase-3 and TNF-α. Wall thickening can be measured, for instance, as described by Dohi et al. (1999) “Hapten-induced colitis is associated with colonic patch hypertrophy and T helper cell 2-type responses.” J Expt Med 189: 1169-79, which is incorporated by reference. […]

established IBD = experiment: Established IBD in the hapten model in SJL mice; type: in vivo, mouse
Procedure: SJL mice can be given TNBS by enema for the induction of colitis, and their body weights can be monitored every 3 days. When there has been a decrease in body mass by at least 15% (typically day 7), the animals can be given either four i.p. injections of 10 μg alkaline protease every 12 hours (Group 1) or administered alkaline protease in their drinking water at a concentration found above to decrease IBD parameters (Group 2). A control group can be challenged with TNBS, but would not receive protease (Group 3). Body weights can then be monitored daily, and at the end of one week, mice are euthanized and tissues taken for scoring the various histopathological and immunohistochemical parameters as known in the art.

spontaneous colitis = experiment: Spontaneous colitis in C3H/HeJBir mice; type: in vivo, mouse; conditions: weeks 6-10 of life
Description: This particular mouse strain develops a transmural Th1-, cytokine-dependent colitis similar to CD that begins at 3-6 wk of life and gradually wanes until it resolves at 3 months of age. T cells and Th1 cytokines (IL-112, IFN-γ and TNF-α) mediate the disease which is maintained by an ongoing reaction to microbial flora antigens.
C3H/HeJBir mice can be obtained at 5-6 wk of age from Jackson Labs. Mice can be divided into three groups, for example: Group 1 should receive no further treatment and may simply be monitored for clinical signs, including daily measurements of body weight and endpoint pathology. Group 2 should be administered alkaline protease in their drinking water at a dose of 10-25 mg/kg/week for one week. Group 3 should be administered alkaline protease in their drinking water (dose determined above) for two weeks. After 1 week (Group 2 and half of Group 1) or 2 weeks (Group 3 and half of Group 1), animals can be sacrificed and body weight changes and histopathological scores of inflammation and tissue damage (leukocyte infiltration, ulceration, abscesses and fibrosis), activated caspase-3 expression and TNF-α expression can be measured by methods known in the art.

[1] = Table 1; cited from earlier work

B1: Alkaline Protease: Aspergillus oryzae alkaline protease (oryzin), SEQ ID NO: 2, purified from the protease powder of Example 1 (protein, listed as Aspergillus oryzae)
chain: MQSIKRTLLLLGAILPAVLGAPVQETRRAAEKLPGKYIVTFKPGIDEAKIQEHTTWATNIHQRSLERRGATGGDLPVGIERNYKINKFAAYAGSFDDATIEEIRKNEDVAYVEEDQIYYLDGLTTQKSAPWGLGSISHKGQQSTDYIYDTSAGEGTYAYVVDSGVNVDHEEFEGRASKAYNAAGGQHVDSIGHGTHVSGTIAGKTYGIAKKASILSVKVFQGESSSTSVILDGFNWAANDIVSKKRTSKAAINMSLGGGYSKAFNDAVENAFEQGVLSVVAAGNENSDAGQTSPASAPDAITVAAIQKSNNRASFSNFGKVVDVFAPGQDILSAWIGSSSATNTISGTSMATPHIVGLSLYLAALENLDGPAAVTKRIKELATKDWKDVKGSPNLLAYNGNA
In the case of B1, the “Cleavage of mouse IFN-γ” value (mouse recombinant IFN-γ) is reported as “partial degrades mouse IFN-γ”, the “Cleavage of mouse IFN-γ” value (mouse recombinant IFN-γ; listed as alkaline protease (AP)) is reported as “evidenced the same substrate specificity” and the “Weight loss and IBD induction by TNBS” value (TNBS-induced colitis) is reported as “can prevent and/or lessen weight loss and IBD induction by TNBS”. The “Effect on established IBD” value (established IBD) was “can reverse and/or lessen established IBD”, the “Weight loss and pathological lesions” value (spontaneous colitis) was “can correct the weight loss and the pathological lesions” and the “Heat stability (stable at)” value [1] was 37 °C for 3 h. For the same molecule, the pI [1] was 6.53.
